In IntAct's records for PubMed 16619031:

B1: DNA replication regulator SLD2 (Saccharomyces cerevisiae), P34252 (parent)
chain: MYSFELDKLKIELKTWEHDFIDKNKREPTRDDIKSLRTVRQMYKQYSTLKKKQSLQRQKVDTQESVELPAHKKDHDEVVEIGPTPQVYGKAISIFDMNLSPIKPIYMTFTNNIDVNNDNSKTISNESSPRKTILLKSSPADRTLVAEPISSVKRQLNFQMLNASSTRTPTSSPCKNRNGKLVEIKKCSPTINPPLESGKPSGYYGPNSPLKLDEENIHLNISLNSSTKRRLQIAYPSLQKTPSKDQADISTSFSPSPLIRRPLTKSLIELAREHTEIVKEFGVLQEEDIEEEEEGEEGENGYDEKNHEDDFGLEDELIRPKVVKDIFQEDDDNDDSQAREDTFIRKRPKRRKVIRRLRDNDPETETAGFERDVHKELVKLKRRKVAEFLGSTSQISDTEFEHDPEASSGVVSSEQKPTAKRKGRKKYNLVSNNFRRLKLPKKNRFSNGRWGRR
partner: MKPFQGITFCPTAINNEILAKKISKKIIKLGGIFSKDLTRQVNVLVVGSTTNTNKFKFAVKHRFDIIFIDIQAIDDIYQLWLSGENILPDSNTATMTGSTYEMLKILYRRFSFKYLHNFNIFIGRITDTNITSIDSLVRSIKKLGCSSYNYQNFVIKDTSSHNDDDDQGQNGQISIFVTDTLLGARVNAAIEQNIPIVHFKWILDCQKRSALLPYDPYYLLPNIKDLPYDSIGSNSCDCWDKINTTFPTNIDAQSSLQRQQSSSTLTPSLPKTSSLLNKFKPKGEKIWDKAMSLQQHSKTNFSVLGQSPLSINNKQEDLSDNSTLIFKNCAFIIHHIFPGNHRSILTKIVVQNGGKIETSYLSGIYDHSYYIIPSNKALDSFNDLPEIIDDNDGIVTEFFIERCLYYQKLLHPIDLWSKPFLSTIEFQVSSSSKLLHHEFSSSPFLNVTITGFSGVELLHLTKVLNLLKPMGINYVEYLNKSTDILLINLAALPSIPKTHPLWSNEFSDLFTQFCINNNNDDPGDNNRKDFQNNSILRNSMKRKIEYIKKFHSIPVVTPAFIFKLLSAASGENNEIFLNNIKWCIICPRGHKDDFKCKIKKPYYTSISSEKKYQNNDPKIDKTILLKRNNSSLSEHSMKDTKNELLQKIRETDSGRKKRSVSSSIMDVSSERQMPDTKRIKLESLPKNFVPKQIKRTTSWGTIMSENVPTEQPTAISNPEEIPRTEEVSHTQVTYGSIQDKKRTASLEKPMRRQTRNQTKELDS

Variants of: B1
Settings: with dpb11_yeast DPB11, P47027

Variant | effect of a mutation on the interaction
S100A | disrupting interaction
T168A | disrupting interaction
S208A | disrupting interaction
S172A | disrupting interaction
S128A | disrupting interaction
T241A | disrupting interaction

Variants of: B1
Settings: with dpb11_yeast DPB11, P47027
Remark: another data set of the same source

Variant | effect of a mutation on the interaction
T84A | disrupting interaction
